Results from article PMC10473755.

Target: prion-like C-terminal domain of TDP-43 (TDP-43PrLD), in droplets with poly-A RNA (UniProt Q13148)
Experiment: co-sedimentation

Chain of prion-like C-terminal domain of TDP-43 (TDP-43PrLD), in droplets with poly-A RNA (Q13148 267-414): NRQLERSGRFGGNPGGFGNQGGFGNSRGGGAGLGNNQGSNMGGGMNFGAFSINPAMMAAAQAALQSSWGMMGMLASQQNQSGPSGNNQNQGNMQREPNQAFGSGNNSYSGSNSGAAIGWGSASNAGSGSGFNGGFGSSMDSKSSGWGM

percent of total αS partitioned into the droplets: 8%
Substance: α-synuclein, wild-type monomers (from UniProt P37840 1-140) (natural protein)
